This note sets out measurements from PMC7447634, “KIN10 promotes stomatal development through stabilization of the [sequence] transcription factor” (Nature Communications, 2020).

In the assay the target is T1, maltose-binding protein (MBP)-KIN10 (Arabidopsis thaliana, UniProt Q38997-2 1-512).
T1 construct: KIN10, catalytic alpha subunit of SnRK1, Arabidopsis thaliana; full-length cDNA without stop codon in pMAL2CGW (N-MBP); also called KIN10-MBP; source: bacteria (Escherichia coli), purified (amylose resin); not shown: MBP, N-terminal, kept
T1 sequence (looked up): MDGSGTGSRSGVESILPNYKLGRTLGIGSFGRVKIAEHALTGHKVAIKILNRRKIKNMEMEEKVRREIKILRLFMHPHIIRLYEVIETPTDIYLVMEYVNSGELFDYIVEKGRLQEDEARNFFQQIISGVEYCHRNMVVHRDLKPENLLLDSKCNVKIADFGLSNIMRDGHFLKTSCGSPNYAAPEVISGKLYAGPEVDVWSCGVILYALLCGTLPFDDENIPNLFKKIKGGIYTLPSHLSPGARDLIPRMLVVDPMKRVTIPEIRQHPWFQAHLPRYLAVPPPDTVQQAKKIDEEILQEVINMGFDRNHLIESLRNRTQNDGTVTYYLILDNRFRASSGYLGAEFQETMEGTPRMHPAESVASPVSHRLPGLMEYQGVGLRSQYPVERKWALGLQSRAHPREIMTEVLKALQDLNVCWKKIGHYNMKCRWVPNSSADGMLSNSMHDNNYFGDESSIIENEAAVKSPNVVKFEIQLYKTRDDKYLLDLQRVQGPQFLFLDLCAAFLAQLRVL
As to the kind of experiment: pull-down; 1 µg GST-SPCH bound to glutathione agarose beads incubated with 1 µg MBP or MBP-KIN10; 20 mM Tris-HCl pH 7.5, 100 mM NaCl, 1 mM EDTA, 4 °C, 1 h; washed with 300 mM NaCl, 0.1% Nonidet P-40; blot with anti-MBP. To be noted: both partners purified.

B1: glutathione S-transferase (GST)-SPCH (natural protein, Arabidopsis thaliana, UniProt Q700C7 1-364, looked up)
chain: MQEIIPDFLEECEFVDTSLAGDDLFAILESLEGAGEISPTAASTPKDGTTSSKELVKDQDYENSSPKRKKQRLETRKEEDEEEEDGDGEAEEDNKQDGQQKMSHVTVERNRRKQMNEHLTVLRSLMPCFYVKRGDQASIIGGVVEYISELQQVLQSLEAKKQRKTYAEVLSPRVVPSPRPSPPVLSPRKPPLSPRINHHQIHHHLLLPPISPRTPQPTSPYRAIPPQLPLIPQPPLRSYSSLASCSSLGDPPPYSPASSSSSPSVSSNHESSVINELVANSKSALADVEVKFSGANVLLKTVSHKIPGQVMKIIAALEDLALEILQVNINTVDETMLNSFTIKIGIECQLSAEELAQQIQQTFC
notes: full-length cDNA without stop codon in pDEST15 (N-GST); source: bacteria, purified (glutathione beads); not shown: GST, N-terminal, kept
With B1, the binding result is listed as “binds”.
